Earlier results as cited in patent US20240277840A1, “SUPERCONCENTRATED FORMULATIONS OF BIOACTIVE AGENTS” (UPKARA, INC., priority 2021, published 2024).

Settings: intraperitoneal (IP) administration, preclinical

catumaxomab
local concentration of the antibody in the ascites fluid: high local concentrations | systemic exposure, detectable in plasma: < 5%
